Experimental data published in article PMC11329502.

Key:
[1] = target: Recombinant mouse nidogen-2 protein (mouse) (UniProt O88322)
[2] = target: Recombinant mouse nidogen-2 protein (mouse) (UniProt O88322); test: ELISA

Sequence of UniProt O88322 (O88322 31-1403): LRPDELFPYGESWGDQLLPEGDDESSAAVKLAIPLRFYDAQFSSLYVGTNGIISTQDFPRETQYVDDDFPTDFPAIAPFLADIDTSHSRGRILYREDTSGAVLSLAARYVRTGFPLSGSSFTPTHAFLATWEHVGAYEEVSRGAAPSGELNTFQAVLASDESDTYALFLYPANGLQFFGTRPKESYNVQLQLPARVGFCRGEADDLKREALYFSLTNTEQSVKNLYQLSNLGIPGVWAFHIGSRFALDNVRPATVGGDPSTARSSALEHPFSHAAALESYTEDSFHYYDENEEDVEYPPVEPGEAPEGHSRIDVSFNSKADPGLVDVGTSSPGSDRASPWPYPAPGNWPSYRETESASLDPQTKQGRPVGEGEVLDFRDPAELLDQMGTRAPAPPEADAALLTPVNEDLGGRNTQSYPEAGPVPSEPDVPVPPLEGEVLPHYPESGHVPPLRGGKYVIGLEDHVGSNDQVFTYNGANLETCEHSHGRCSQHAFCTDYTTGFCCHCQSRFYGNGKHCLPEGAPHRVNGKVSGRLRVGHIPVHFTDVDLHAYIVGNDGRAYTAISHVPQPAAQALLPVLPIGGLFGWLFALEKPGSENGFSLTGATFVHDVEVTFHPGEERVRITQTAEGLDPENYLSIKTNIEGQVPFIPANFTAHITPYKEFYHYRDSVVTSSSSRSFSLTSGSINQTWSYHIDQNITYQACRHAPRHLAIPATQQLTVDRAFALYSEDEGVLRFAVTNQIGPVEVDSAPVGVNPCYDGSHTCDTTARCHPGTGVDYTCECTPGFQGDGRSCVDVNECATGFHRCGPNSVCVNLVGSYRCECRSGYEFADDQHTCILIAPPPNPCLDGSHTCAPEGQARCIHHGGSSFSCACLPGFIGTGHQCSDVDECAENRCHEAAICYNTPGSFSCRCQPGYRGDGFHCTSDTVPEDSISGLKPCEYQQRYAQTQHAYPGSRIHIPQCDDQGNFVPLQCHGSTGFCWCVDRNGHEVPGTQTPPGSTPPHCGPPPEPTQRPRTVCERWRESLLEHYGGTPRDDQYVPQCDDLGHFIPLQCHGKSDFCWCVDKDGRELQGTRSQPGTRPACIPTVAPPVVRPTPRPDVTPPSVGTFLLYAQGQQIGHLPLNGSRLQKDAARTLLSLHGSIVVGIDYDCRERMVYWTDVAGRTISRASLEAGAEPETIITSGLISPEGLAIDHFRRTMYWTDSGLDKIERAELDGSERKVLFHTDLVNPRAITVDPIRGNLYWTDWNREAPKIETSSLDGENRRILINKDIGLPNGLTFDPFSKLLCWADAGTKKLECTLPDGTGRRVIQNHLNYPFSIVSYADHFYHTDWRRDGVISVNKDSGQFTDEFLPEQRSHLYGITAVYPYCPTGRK

Substance	uptake of HCT-555 in mouse motor neurons pre-incubated with 20 μM of the domain, against buffer; pair to be blocked: nidogen and endogenous LAR [1] [%]	uptake of nidogen-2 in axons of mouse motor neurons pre-incubated with 20 μM of the domain, against buffer; pair to be blocked: nidogen and endogenous LAR [1] [%]	Kd [2] [µM]
LAR FNIII2-FLAG (6×His-LAR FNIII2-FLAG) (domain or fragment)	30	25	2
PTPRδ Ig1-3-His (domain or fragment)			2
LAR FNIII5-7-FLAG (domain or fragment)			6.8
LAR FNIII7-FLAG (6×His-LAR FNIII7-FLAG) (domain or fragment)	30	25	2.5
LAR FNIII1-4-FLAG (domain or fragment)			5.6
PTPRδ FNIII5-7-FLAG (domain or fragment)			10
LAR FNIII4-FLAG (6×His-LAR FNIII4-FLAG) (domain or fragment)	30	25	1.9
LAR FNIII5-FLAG (6×His-LAR FNIII5-FLAG) (domain or fragment)			1.4
